Here are results for one substance from publication PMC8510550.

The target in this experiment is VirB4-like TraB ATPase of the pKM101-encoded type IV secretion system (plasmid pKM101 (carried in E. coli)). Description: cryo-EM structure; in situ cryo-electron tomography with subtomogram averaging of T4SS(pKM101) machines in E. coli UU2834 minicells; 6-fold symmetry seen in class averages and then imposed for the IMC; wild type compared with ΔtraB mutant machines.

A word on the stoichiometry N: it is a count of units in the complex or per binding partner. Substance “VirB4-like TraB ATPase of the pKM101-encoded type IV secretion system (enzyme)” yielded a stoichiometry N of 12.
